According to article PMC9482650, “Quantitative fragmentomics allow affinity mapping of interactomes” (Nature Communications, 2022):

T1: ARHGEF11, O15085
T1 sequence (O15085 42-136, limits assumed, looked up): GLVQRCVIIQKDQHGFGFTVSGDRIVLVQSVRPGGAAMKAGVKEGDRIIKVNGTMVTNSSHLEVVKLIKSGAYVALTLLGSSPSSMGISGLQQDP

T2: GRIP1_5, Q9Y3R0
T2 sequence (Q9Y3R0 568-668, limits assumed, looked up): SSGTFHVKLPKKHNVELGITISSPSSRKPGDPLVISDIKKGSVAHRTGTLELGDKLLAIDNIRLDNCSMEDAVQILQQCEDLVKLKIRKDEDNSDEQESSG

T3: GRIP1_7, Q9Y3R0
T3 sequence (Q9Y3R0 999-1096, limits assumed, looked up): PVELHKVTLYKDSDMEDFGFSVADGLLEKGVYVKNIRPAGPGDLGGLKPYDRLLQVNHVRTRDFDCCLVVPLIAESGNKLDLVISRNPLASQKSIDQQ

T4: LIN7A, O14910
T4 sequence (O14910 103-200, limits assumed, looked up): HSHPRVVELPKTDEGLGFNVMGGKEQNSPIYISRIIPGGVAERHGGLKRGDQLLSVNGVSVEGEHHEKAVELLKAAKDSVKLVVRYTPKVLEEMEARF

T5: MPP6, Q9NZW5
T5 sequence (Q9NZW5 125-219, limits assumed, looked up): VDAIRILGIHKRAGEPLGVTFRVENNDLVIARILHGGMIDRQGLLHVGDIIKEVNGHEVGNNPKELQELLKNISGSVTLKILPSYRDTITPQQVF

T6: MPP7, Q5T2T1
T6 sequence (Q5T2T1 134-230, limits assumed, looked up): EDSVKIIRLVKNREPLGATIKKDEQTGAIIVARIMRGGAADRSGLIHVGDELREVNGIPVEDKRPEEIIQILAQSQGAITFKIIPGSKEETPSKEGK

T7: PCLO, Q9Y6V0
T7 sequence (Q9Y6V0 4491-4600, limits assumed, looked up): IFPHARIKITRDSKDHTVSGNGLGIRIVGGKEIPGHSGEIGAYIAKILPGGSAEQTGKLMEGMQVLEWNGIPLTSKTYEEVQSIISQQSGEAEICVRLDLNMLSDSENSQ

T8: PDZRN3_1, Q9UPQ7
T8 sequence (Q9UPQ7 244-349, limits assumed, looked up): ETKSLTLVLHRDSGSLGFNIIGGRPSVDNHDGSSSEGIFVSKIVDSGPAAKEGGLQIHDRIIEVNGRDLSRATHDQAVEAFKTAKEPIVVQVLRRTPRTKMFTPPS

T9: PTPN13_1, Q12923
T9 sequence (Q12923 1088-1188, limits assumed, looked up): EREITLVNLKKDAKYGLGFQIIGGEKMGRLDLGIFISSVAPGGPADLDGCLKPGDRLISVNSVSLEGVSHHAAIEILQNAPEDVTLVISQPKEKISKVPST

T10: SYNJ2BP, P57105
T10 sequence (P57105 8-110, limits assumed, looked up): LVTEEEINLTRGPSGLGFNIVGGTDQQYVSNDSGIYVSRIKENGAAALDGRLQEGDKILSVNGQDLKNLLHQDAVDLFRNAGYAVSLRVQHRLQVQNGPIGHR

B1: HNRNPK, P61978;P61978-2 (peptide)
chain: VKQYADVEGF
B2: PALLS, Q8WX93;Q8WX93-1 (peptide)
chain: NTALVESEDL

These binders were tested against AHNAK1, Q09666 (assay: holdup assay). Conditions: plain residues with an end cap or a label only (N-terminal biotin on a linker: ado-ado).
Set-up: key: below the threshold = too weak to quantify, mostly under pKd 3.1 to 4

pKd	Binder
below the threshold	B1
below the threshold	B2

The binders below were run against T1, ARHGEF11, O15085 (assay: holdup assay). Conditions: plain residues with an end cap or a label only (N-terminal biotin on a linker: ado-ado).
Set-up: key: below the threshold = too weak to quantify, mostly under pKd 3.1 to 4

pKd	Binder
below the threshold	B1
4.05	B2

These binders were tested against DLG4_2, P78352 (assay: holdup assay). Conditions: plain residues with an end cap or a label only (N-terminal biotin on a linker: ado-ado).
Set-up: key: below the threshold = too weak to quantify, mostly under pKd 3.1 to 4

Chain of DLG4_2, P78352 (P78352 155-259): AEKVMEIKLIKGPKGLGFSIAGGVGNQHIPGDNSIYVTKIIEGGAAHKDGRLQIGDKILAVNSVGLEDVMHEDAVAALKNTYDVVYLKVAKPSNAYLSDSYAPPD

pKd	Binder
below the threshold	B1
below the threshold	B2

Each binder was assayed against FRMPD2_1, Q68DX3 (assay: holdup assay). Conditions: plain residues with an end cap or a label only (N-terminal biotin on a linker: ado-ado).
Set-up: key: below the threshold = too weak to quantify, mostly under pKd 3.1 to 4

Chain of FRMPD2_1, Q68DX3 (Q68DX3 770-861): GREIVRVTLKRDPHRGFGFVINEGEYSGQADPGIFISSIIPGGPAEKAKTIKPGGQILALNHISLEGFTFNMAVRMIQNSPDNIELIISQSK

pKd	Binder
below the threshold	B1
below the threshold	B2

What follows are binders tested against GIPC2, Q8TF65 (assay: holdup assay). Conditions: plain residues with an end cap or a label only (N-terminal biotin on a linker: ado-ado).
Set-up: key: below the threshold = too weak to quantify, mostly under pKd 3.1 to 4

Chain of GIPC2, Q8TF65 (Q8TF65 112-203): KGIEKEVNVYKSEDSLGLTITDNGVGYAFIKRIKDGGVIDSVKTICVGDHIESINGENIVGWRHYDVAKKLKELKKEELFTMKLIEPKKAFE

pKd	Binder
below the threshold	B1
below the threshold	B2

The binders below were run against GRASP, Q7Z6J2 (assay: holdup assay). Conditions: plain residues with an end cap or a label only (N-terminal biotin on a linker: ado-ado).
Set-up: key: below the threshold = too weak to quantify, mostly under pKd 3.1 to 4

Chain of GRASP, Q7Z6J2 (Q7Z6J2 96-193): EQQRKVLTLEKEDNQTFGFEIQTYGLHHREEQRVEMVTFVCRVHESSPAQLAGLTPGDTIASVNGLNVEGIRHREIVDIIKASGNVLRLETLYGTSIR

pKd	Binder
below the threshold	B2

The binders below were run against GRID2IP_1, A4D2P6 (assay: holdup assay). Conditions: plain residues with an end cap or a label only (N-terminal biotin on a linker: ado-ado).
Set-up: key: below the threshold = too weak to quantify, mostly under pKd 3.1 to 4

Chain of GRID2IP_1, A4D2P6 (A4D2P6 1-87): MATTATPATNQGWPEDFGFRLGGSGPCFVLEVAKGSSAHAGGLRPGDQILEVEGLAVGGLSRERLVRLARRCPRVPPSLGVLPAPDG

pKd	Binder
below the threshold	B1
below the threshold	B2

The binders below were run against T2, GRIP1_5, Q9Y3R0 (assay: holdup assay). Conditions: plain residues with an end cap or a label only (N-terminal biotin on a linker: ado-ado).
Set-up: key: below the threshold = too weak to quantify, mostly under pKd 3.1 to 4

pKd	Binder
below the threshold	B1
below the threshold	B2

The binders below were run against T3, GRIP1_7, Q9Y3R0 (assay: holdup assay). Conditions: plain residues with an end cap or a label only (N-terminal biotin on a linker: ado-ado).
Set-up: key: below the threshold = too weak to quantify, mostly under pKd 3.1 to 4

pKd	Binder
below the threshold	B1
below the threshold	B2

What follows are binders tested against GRIP2_3, Q9C0E4 (assay: holdup assay). Conditions: plain residues with an end cap or a label only (N-terminal biotin on a linker: ado-ado).
Set-up: key: below the threshold = too weak to quantify, mostly under pKd 3.1 to 4

Chain of GRIP2_3, Q9C0E4 (Q9C0E4 238-339): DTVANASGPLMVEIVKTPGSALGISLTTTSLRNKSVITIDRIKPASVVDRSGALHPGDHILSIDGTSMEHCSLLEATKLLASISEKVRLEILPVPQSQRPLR

pKd	Binder
below the threshold	B1
below the threshold	B2

What follows are binders tested against GRIP2_6, Q9C0E4 (assay: holdup assay). Conditions: plain residues with an end cap or a label only (N-terminal biotin on a linker: ado-ado).
Set-up: key: below the threshold = too weak to quantify, mostly under pKd 3.1 to 4

Chain of GRIP2_6, Q9C0E4 (Q9C0E4 648-740): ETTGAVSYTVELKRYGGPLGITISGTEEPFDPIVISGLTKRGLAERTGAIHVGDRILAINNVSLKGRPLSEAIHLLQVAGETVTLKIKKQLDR

pKd	Binder
below the threshold	B1
below the threshold	B2

What follows are binders tested against HTRA1, Q92743 (assay: holdup assay). Conditions: plain residues with an end cap or a label only (N-terminal biotin on a linker: ado-ado).
Set-up: key: below the threshold = too weak to quantify, mostly under pKd 3.1 to 4

Chain of HTRA1, Q92743 (Q92743 360-477): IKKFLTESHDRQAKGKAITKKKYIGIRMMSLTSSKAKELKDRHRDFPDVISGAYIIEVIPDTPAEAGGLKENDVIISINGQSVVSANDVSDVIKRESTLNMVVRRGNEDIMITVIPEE

pKd	Binder
below the threshold	B1
below the threshold	B2

Each binder was assayed against Inadl_4, Q8NI35 (assay: holdup assay). Conditions: plain residues with an end cap or a label only (N-terminal biotin on a linker: ado-ado).
Set-up: key: below the threshold = too weak to quantify, mostly under pKd 3.1 to 4

Chain of Inadl_4, Q8NI35 (Q8NI35 547-651): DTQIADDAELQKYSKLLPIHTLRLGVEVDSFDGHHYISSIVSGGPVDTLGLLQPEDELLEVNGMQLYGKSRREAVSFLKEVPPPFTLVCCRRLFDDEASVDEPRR

pKd	Binder
below the threshold	B1
below the threshold	B2

The binders below were run against T4, LIN7A, O14910 (assay: holdup assay). Conditions: plain residues with an end cap or a label only (N-terminal biotin on a linker: ado-ado).
Set-up: key: below the threshold = too weak to quantify, mostly under pKd 3.1 to 4

pKd	Binder
below the threshold	B1
below the threshold	B2

What follows are binders tested against MAGI1_1, Q96QZ7 (assay: holdup assay). Conditions: plain residues with an end cap or a label only (N-terminal biotin on a linker: ado-ado).
Set-up: key: below the threshold = too weak to quantify, mostly under pKd 3.1 to 4

Chain of MAGI1_1, Q96QZ7 (Q96QZ7 1-106): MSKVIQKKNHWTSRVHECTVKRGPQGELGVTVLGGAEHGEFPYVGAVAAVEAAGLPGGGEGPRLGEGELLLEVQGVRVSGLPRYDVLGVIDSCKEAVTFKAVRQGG

pKd	Binder
below the threshold	B1
below the threshold	B2

Each binder was assayed against MAGI1_2, Q96QZ7 (assay: holdup assay). Conditions: plain residues with an end cap or a label only (N-terminal biotin on a linker: ado-ado).
Set-up: key: below the threshold = too weak to quantify, mostly under pKd 3.1 to 4

Chain of MAGI1_2, Q96QZ7 (Q96QZ7 456-580): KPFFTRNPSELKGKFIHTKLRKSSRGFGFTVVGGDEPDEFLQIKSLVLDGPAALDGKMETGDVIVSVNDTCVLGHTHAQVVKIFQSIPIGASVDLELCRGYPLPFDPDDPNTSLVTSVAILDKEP

pKd	Binder
below the threshold	B1
below the threshold	B2

The binders below were run against MAGI2_3, Q86UL8 (assay: holdup assay). Conditions: plain residues with an end cap or a label only (N-terminal biotin on a linker: ado-ado).
Set-up: key: below the threshold = too weak to quantify, mostly under pKd 3.1 to 4

Chain of MAGI2_3, Q86UL8 (Q86UL8 600-682): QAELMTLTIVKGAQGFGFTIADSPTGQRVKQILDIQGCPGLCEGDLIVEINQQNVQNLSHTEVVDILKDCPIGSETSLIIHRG

pKd	Binder
below the threshold	B1
below the threshold	B2

The binders below were run against MAGI2_5, Q86UL8 (assay: holdup assay). Conditions: plain residues with an end cap or a label only (N-terminal biotin on a linker: ado-ado).
Set-up: key: below the threshold = too weak to quantify, mostly under pKd 3.1 to 4

Chain of MAGI2_5, Q86UL8 (Q86UL8 915-1017): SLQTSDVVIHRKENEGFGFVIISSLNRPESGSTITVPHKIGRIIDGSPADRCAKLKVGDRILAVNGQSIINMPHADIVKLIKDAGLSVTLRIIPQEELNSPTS

pKd	Binder
below the threshold	B1
below the threshold	B2

These binders were tested against MAST2, Q6P0Q8 (assay: holdup assay). Conditions: plain residues with an end cap or a label only (N-terminal biotin on a linker: ado-ado).
Set-up: key: below the threshold = too weak to quantify, mostly under pKd 3.1 to 4

Chain of MAST2, Q6P0Q8 (Q6P0Q8 1099-1202): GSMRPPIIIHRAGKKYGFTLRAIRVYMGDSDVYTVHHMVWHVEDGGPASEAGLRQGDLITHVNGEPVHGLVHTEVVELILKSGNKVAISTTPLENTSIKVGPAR

pKd	Binder
5.15	B2

These binders were tested against T5, MPP6, Q9NZW5 (assay: holdup assay). Conditions: plain residues with an end cap or a label only (N-terminal biotin on a linker: ado-ado).
Set-up: key: below the threshold = too weak to quantify, mostly under pKd 3.1 to 4

pKd	Binder
below the threshold	B2

The binders below were run against T6, MPP7, Q5T2T1 (assay: holdup assay). Conditions: plain residues with an end cap or a label only (N-terminal biotin on a linker: ado-ado).
Set-up: key: below the threshold = too weak to quantify, mostly under pKd 3.1 to 4

pKd	Binder
below the threshold	B1
below the threshold	B2

Each binder was assayed against NHERF4_2, Q86UT5 (assay: holdup assay). Conditions: plain residues with an end cap or a label only (N-terminal biotin on a linker: ado-ado).
Set-up: key: below the threshold = too weak to quantify, mostly under pKd 3.1 to 4

Chain of NHERF4_2, Q86UT5 (Q86UT5 220-308): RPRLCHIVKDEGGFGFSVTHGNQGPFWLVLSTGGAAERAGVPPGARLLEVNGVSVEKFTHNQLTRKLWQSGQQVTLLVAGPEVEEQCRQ

pKd	Binder
below the threshold	B1

These binders were tested against T7, PCLO, Q9Y6V0 (assay: holdup assay). Conditions: plain residues with an end cap or a label only (N-terminal biotin on a linker: ado-ado).
Set-up: key: below the threshold = too weak to quantify, mostly under pKd 3.1 to 4

pKd	Binder
below the threshold	B1
below the threshold	B2

What follows are binders tested against T8, PDZRN3_1, Q9UPQ7 (assay: holdup assay). Conditions: plain residues with an end cap or a label only (N-terminal biotin on a linker: ado-ado).
Set-up: key: below the threshold = too weak to quantify, mostly under pKd 3.1 to 4

pKd	Binder
below the threshold	B1
below the threshold	B2

What follows are binders tested against T9, PTPN13_1, Q12923 (assay: holdup assay). Conditions: plain residues with an end cap or a label only (N-terminal biotin on a linker: ado-ado).
Set-up: key: below the threshold = too weak to quantify, mostly under pKd 3.1 to 4

pKd	Binder
below the threshold	B1
below the threshold	B2

The binders below were run against SCRIB_2, Q14160 (assay: holdup assay). Conditions: plain residues with an end cap or a label only (N-terminal biotin on a linker: ado-ado).
Set-up: key: below the threshold = too weak to quantify, mostly under pKd 3.1 to 4

Chain of SCRIB_2, Q14160 (Q14160 857-960): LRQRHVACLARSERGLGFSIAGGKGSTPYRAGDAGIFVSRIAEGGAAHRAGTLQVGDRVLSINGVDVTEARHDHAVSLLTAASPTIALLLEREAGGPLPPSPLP

pKd	Binder
below the threshold	B1
below the threshold	B2

What follows are binders tested against T10, SYNJ2BP, P57105 (assay: holdup assay). Conditions: plain residues with an end cap or a label only (N-terminal biotin on a linker: ado-ado).
Set-up: key: below the threshold = too weak to quantify, mostly under pKd 3.1 to 4

pKd	Binder
below the threshold	B1
